Biological target: transferrin receptor on HeLa S3 cells (human) (UniProt P02786)
Assay: radioiodinated transferrin on HeLa S3 cells, no competitor

Sequence of transferrin receptor on HeLa S3 cells (human) (P02786 whole entry): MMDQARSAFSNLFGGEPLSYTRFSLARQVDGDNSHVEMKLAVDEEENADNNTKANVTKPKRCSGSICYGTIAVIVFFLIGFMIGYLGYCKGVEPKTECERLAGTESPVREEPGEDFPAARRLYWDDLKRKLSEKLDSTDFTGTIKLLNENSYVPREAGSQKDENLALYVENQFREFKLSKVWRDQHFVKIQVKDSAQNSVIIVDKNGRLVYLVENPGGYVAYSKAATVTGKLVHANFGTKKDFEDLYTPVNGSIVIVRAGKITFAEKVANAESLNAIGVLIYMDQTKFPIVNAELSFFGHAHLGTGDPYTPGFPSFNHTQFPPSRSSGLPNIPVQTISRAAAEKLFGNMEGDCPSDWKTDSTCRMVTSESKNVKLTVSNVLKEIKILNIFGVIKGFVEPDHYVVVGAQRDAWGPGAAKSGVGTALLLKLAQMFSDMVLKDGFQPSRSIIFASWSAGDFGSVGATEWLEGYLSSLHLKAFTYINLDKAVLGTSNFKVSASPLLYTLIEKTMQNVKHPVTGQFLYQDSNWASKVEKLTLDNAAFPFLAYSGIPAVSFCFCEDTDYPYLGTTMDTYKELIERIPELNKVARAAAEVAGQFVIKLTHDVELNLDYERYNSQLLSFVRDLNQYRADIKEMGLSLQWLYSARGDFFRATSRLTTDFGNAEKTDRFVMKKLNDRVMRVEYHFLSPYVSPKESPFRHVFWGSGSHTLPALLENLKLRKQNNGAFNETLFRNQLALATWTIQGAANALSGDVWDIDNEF

TF/cell in the absence of competitor: 328000 TF/cell
cpm bound in the absence of competitor: 7480 cpm
Substance: radiolabeled diferric transferrin
